For one data set, the target named is T1, mpCAR (Mycolicibacterium phlei, UniProt A0A5N5VEC4).
T1 construct: gene car; expressed in E. coli BL21(DE3) with B. subtilis Sfp (phosphopantetheinylated); around 130 kDa
The data set can be described thus: NADPH oxidation at […] nm, product inhibition kinetics. In kind it is biochemical. Conditions: pH 7.5, 30 °C, 10 mM MgCl2.

For the next data set, the system named is COc1ccc(C(=O)O)cc1. The data set can be described thus: purified protein. Conditions: 1 mM ATP, 0.25 mM NADPH, 10 mM MgCl2, 100 mM Tris-HCl pH 7.5, 30 °C.
Data set [1] has as its system CCCCCCCCCCCC(=O)O. The data set can be described thus: purified protein. As to conditions: 1 mM ATP, […] NADPH, 10 mM MgCl2, 100 mM Tris-HCl pH 7.5, 30 °C. In kind it is biochemical, Nocardia iowensis.
The subject of another data set is O=C(O)/C=C/c1ccccc1. The data set can be described thus: purified protein. In kind it is biochemical, Nocardia iowensis. Conditions: 1 mM ATP, […] NADPH, 10 mM MgCl2, 100 mM Tris-HCl pH 7.5, 30 °C.
The test system of data set [2] is CCCCCCCCCCCC(=O)O. The data set can be described thus: purified protein. Conditions: 1 mM ATP, […] NADPH, 10 mM MgCl2, 100 mM Tris-HCl pH 7.5, 30 °C.
In data set [3] the test system is CCCCCCCCCCCCCCCCCC(=O)O. The data set can be described thus: purified protein. Conditions: 1 mM ATP, […] NADPH, 10 mM MgCl2, 100 mM Tris-HCl pH 7.5, 30 °C.
A further data set relates to CCCCCCCC(=O)O. Put plainly: purified protein. In kind it is biochemical, Tsukamurella paurometabola. As to conditions: 1 mM ATP, […] NADPH, 10 mM MgCl2, 100 mM Tris-HCl pH 7.5, 30 °C.
Data set [4] deals with CCCCCCCCCCCC(=O)O. The data set can be described thus: purified protein. Conditions: 1 mM ATP, […] NADPH, 10 mM MgCl2, 100 mM Tris-HCl pH 7.5, 30 °C. In kind it is biochemical, Tsukamurella paurometabola.
Data set [5] deals with CCCCCCCCCCCCCCCCCC(=O)O. Put plainly: purified protein. In kind it is biochemical, Tsukamurella paurometabola. Conditions: 1 mM ATP, […] NADPH, 10 mM MgCl2, 100 mM Tris-HCl pH 7.5, 30 °C.
The next data set concerns O=C(O)C#Cc1ccccc1. Put plainly: purified protein. In kind it is biochemical, Tsukamurella paurometabola. As to conditions: 1 mM ATP, […] NADPH, 10 mM MgCl2, 100 mM Tris-HCl pH 7.5, 30 °C.
Substrate in data set [6]: CCCCCCCC(=O)O
The data set can be described thus: purified protein. Conditions: 1 mM ATP, 0.25 mM NADPH, 10 mM MgCl2, 100 mM Tris-HCl pH 7.5, 30 °C.

Substrate in data set [7]: Cc1ccc(C(=O)O)cc1
Put plainly: purified protein. Conditions: 1 mM ATP, 0.25 mM NADPH, 10 mM MgCl2, 100 mM Tris-HCl pH 7.5, 30 °C.

Substrate in data set [8]: O=C(O)/C=C/c1ccccc1
Put plainly: purified protein. Conditions: 1 mM ATP, 0.25 mM NADPH, 10 mM MgCl2, 100 mM Tris-HCl pH 7.5, 30 °C.

Substrate in data set [9]: CCCCCCCCCCCC(=O)O
The data set can be described thus: purified protein. Conditions: 1 mM ATP, […] NADPH, 10 mM MgCl2, 100 mM Tris-HCl pH 7.5, 30 °C. In kind it is biochemical, Mycolicibacterium smegmatis.

As a reminder, the Ki is the equilibrium dissociation constant of an inhibitor or competing ligand from its target. High values mean weaker binding, low ones tighter binding. As to `Nc1ncnc2c1ncn2[C@@H]1O[C@H](COP(=O)(O)O)[C@@H](O)[C@H]1O` [AMP], on mpCAR (competitive with ATP), the affinity corresponds to a Ki of 8200 ± 900 µM.
Turning to `NC(=O)c1ccc[n+]([C@@H]2O[C@H](COP(=O)(O)OP(=O)(O)OC[C@H]3O[C@@H](n4cnc5c(N)ncnc54)[C@H](OP(=O)(O)O)[C@@H]3O)[C@@H](O)[C@H]2O)c1` [NADP^+], the affinity at mpCAR (competitive with NADPH), expressed as Ki, was 143 ± 8 µM.
For the molecule `O=P(O)(O)OP(=O)(O)O` [PPi], at mpCAR (mixed inhibition with ATP), the Ki is 220 ± 50 µM.
Broadly, the Km is the concentration of substrate that gives half-maximal velocity. Broadly, the kcat is the maximal rate divided by the concentration of active sites. Broadly, the kcat/Km is the second-order rate constant that governs catalysis at low substrate concentration. niCAR (Nocardia iowensis): in the data set on COc1ccc(C(=O)O)cc1, the Km was found to be 250 ± 10 µM, the kcat amounted to 0.817 s⁻¹ and the kcat/Km worked out at 3330 M⁻¹ s⁻¹. Besides, in the data set on CCCCCCCCCCCC(=O)O [1], the Km worked out at 20 ± 10 µM, the kcat stood at 2.62 ± 0.15 s⁻¹ and the kcat/Km is 117000 ± 33300 M⁻¹ s⁻¹. Further, in the data set with O=C(O)/C=C/c1ccccc1, the Km was 50 ± 20 µM, the kcat came out at 0.128 ± 0.0117 s⁻¹ and the kcat/Km stood at 2830 ± 1170 M⁻¹ s⁻¹.
As to noCAR (Nocardia otitidiscaviarum), in the data set on CCCCCCCCCCCC(=O)O [2], the Michaelis-Menten constant (Km) amounted to 40 ± 10 µM, the kcat came out at 1.65 ± 0.05 s⁻¹ and the kcat/Km was 41700 ± 5000 M⁻¹ s⁻¹. In addition, in the data set on CCCCCCCCCCCCCCCCCC(=O)O [3], the Km came out at 20 ± 10 µM, the kcat is 0.183 ± 0.0167 s⁻¹ and the kcat/Km was 8330 ± 5000 M⁻¹ s⁻¹.
“tpCAR (Tsukamurella paurometabola DSM 20162)”: the Km amounted to 200 ± 10 µM in the data set with CCCCCCCC(=O)O, 40 ± 10 µM with CCCCCCCCCCCC(=O)O [4], 120 ± 30 µM with CCCCCCCCCCCCCCCCCC(=O)O [5] and 90 ± 20 µM in the data set on O=C(O)C#Cc1ccccc1. Further, the kcat with CCCCCCCC(=O)O worked out at 3.65 ± 0.05 s⁻¹; in the data set with CCCCCCCCCCCC(=O)O [4], 2.62 ± 0.0833 s⁻¹; in the data set with CCCCCCCCCCCCCCCCCC(=O)O [5], 0.25 ± 0.0167 s⁻¹; with O=C(O)C#Cc1ccccc1 it was 0.1 ± 0.0667 s⁻¹. Besides, the kcat/Km with CCCCCCCC(=O)O was 19000 ± 833 M⁻¹ s⁻¹; in the data set with CCCCCCCCCCCC(=O)O [4], 60000 ± 6670 M⁻¹ s⁻¹; with CCCCCCCCCCCCCCCCCC(=O)O [5], 2000 ± 500 M⁻¹ s⁻¹; in the data set with O=C(O)C#Cc1ccccc1, 1170 ± 667 M⁻¹ s⁻¹.

B1: msCAR (Mycolicibacterium smegmatis MC2 155) (protein)
chain: MTSDVHDATDGVTETALDDEQSTRRIAELYATDPEFAAAAPLPAVVDAAHKPGLRLAEILQTLFTGYGDRPALGYRARELATDEGGRTVTRLLPRFDTLTYAQVWSRVQAVAAALRHNFAQPIYPGDAVATIGFASPDYLTLDLVCAYLGLVSVPLQHNAPVSRLAPILAEVEPRILTVSAEYLDLAVESVRDVNSVSQLVVFDHHPEVDDHRDALARAREQLAGKGIAVTTLDAIADEGAGLPAEPIYTADHDQRLAMILYTSGSTGAPKGAMYTEAMVARLWTMSFITGDPTPVINVNFMPLNHLGGRIPISTAVQNGGTSYFVPESDMSTLFEDLALVRPTELGLVPRVADMLYQHHLATVDRLVTQGADELTAEKQAGAELREQVLGGRVITGFVSTAPLAAEMRAFLDITLGAHIVDGYGLTETGAVTRDGVIVRPPVIDYKLIDVPELGYFSTDKPYPRGELLVRSQTLTPGYYKRPEVTASVFDRDGYYHTGDVMAETAPDHLVYVDRRNNVLKLAQGEFVAVANLEAVFSGAALVRQIFVYGNSERSFLLAVVVPTPEALEQYDPAALKAALADSLQRTARDAELQSYEVPADFIVETEPFSAANGLLSGVGKLLRPNLKDRYGQRLEQMYADIAATQANQLRELRRAAATQPVIDTLTQAAATILGTGSEVASDAHFTDLGGDSLSALTLSNLLSDFFGFEVPVGTIVNPATNLAQLAQHIEAQRTAGDRRPSFTTVHGADATEIRASELTLDKFIDAETLRAAPGLPKVTTEPRTVLLSGANGWLGRFLTLQWLERLAPVGGTLITIVRGRDDAAARARLTQAYDTDPELSRRFAELADRHLRVVAGDIGDPNLGLTPEIWHRLAAEVDLVVHPAALVNHVLPYRQLFGPNVVGTAEVIKLALTERIKPVTYLSTVSVAMGIPDFEEDGDIRTVSPVRPLDGGYANGYGNSKWAGEVLLREAHDLCGLPVATFRSDMILAHPRYRGQVNVPDMFTRLLLSLLITGVAPRSFYIGDGERPRAHYPGLTVDFVAEAVTTLGAQQREGYVSYDVMNPHDDGISLDVFVDWLIRAGHPIDRVDDYDDWVRRFETALTALPEKRRAQTVLPLLHAFRAPQAPLRGAPEPTEVFHAAVRTAKVGPGDIPHLDEALIDKYIRDLREFGLI
notes: expressed in E. coli BL21(DE3) with B. subtilis Sfp (phosphopantetheinylated); one of three M. smegmatis paralogues, distinct from the CAR of Moura et al
On to B1, for which the Km was determined as 100 ± 10 µM in “purified protein [6]”, 160 ± 20 µM in the data set “purified protein [7]”, 75 ± 4 µM in “purified protein [8]” and 50 ± 10 µM in the data set “purified protein [9]”. Moreover, the catalytic constant (kcat) in the data set “purified protein [6]” came to 4.93 s⁻¹; in the data set “purified protein [7]”, 2.57 s⁻¹; in the data set “purified protein [8]” it was 1.97 s⁻¹; in “purified protein [9]” it was 2.18 ± 0.0833 s⁻¹. For the same molecule, the kcat/Km was 50000 M⁻¹ s⁻¹ in the data set “purified protein [6]”, 15000 M⁻¹ s⁻¹ in the data set “purified protein [7]”, 26700 M⁻¹ s⁻¹ in the data set “purified protein [8]” and 45000 ± 6670 M⁻¹ s⁻¹ in “purified protein [9]”.

The values above are taken from article PMC5396282, “Characterization of Carboxylic Acid Reductases as Enzymes in the Toolbox for Synthetic Chemistry” (Chemcatchem, 2017).
